Assay results from US20090318342A1, “Compounds” (IMPERIAL INNOVATIONS LIMITED, priority 2005, published 2009).

T1: ADAMTS-5 (Homo sapiens, UniProt Q9UNA0)
T1 sequence (Q9UNA0 262-930): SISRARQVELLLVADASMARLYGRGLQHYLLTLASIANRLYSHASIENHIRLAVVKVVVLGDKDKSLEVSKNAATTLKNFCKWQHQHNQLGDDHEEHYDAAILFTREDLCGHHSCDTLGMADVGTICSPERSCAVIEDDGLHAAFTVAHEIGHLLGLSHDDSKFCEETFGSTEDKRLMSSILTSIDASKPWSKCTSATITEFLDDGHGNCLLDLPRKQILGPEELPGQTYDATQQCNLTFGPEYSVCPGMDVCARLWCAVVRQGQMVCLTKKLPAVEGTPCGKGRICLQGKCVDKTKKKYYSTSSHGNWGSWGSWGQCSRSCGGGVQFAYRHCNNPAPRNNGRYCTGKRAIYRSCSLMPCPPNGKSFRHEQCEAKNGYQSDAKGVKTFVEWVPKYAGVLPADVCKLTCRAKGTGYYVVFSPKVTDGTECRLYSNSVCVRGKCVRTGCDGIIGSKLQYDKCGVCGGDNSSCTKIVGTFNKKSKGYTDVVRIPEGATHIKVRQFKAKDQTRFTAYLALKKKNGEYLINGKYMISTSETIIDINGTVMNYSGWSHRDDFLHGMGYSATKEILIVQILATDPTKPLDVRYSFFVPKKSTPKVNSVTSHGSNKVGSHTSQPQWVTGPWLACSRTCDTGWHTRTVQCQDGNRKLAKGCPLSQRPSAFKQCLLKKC


Target: T1, ADAMTS-5
Assay: Aggrecanase assay with GST-IGD-FLAG substrate, ADAMTS-5
Format: biochemical
Details: for Ki: Table 3, GST-IGD-FLAG substrate, pH 7.5, 37° C., read-out: Ki(app) ADAMTS-5
Description: FIG. 8. Graphs of Ki(app) determination. The GST-IGD-FLAG substrate assay was used to determine the Ki(app) of the N-terminal reactive site mutants against ADAMTS-4 (filled squares) and ADAMTS-5 (open circles).
The substrate containing glutathione S-transferase (GST) fused with the interglobular domain (IGD) of aggrecan (Tyr^331 to Gly^457) attached with a C-terminal FLAG sequence (GST-IGD-FLAG) was prepared by cloning it into pGEX-4T1 at the EcoR1 and Xho1 cloning sites. This substrate was expressed in E. coli strain BL-21 (non-DE3) transfected with the pGEX4T1 GST-IGD-FLAG plasmid by induction with […] isopropyl-beta-D-thiogalactopyranoside (IPTG). After induction, bacteria were collected by centrifugation and resuspended in 20 ml of 50 mM Tris-HCl (pH 8.0), 150 mM NaCl, 0.02% NaN3, […] DTT, […] EDTA with proteinase inhibitor cocktail set II inhibitors (Merck, Nottingham, UK). The resuspended bacteria were then disrupted mechanically using a French Press (5×1500 Psi). After centrifugation at 24,000 g (30 min, 4° C.), the supernatant, containing the expressed GST-IGD-FLAG, was applied to a glutathione-Sepharose 4B column (Qiagen, Crawley, UK). The column was washed with 0.5 M NaCl, 50 mM Tris-HCl (pH 8.0) and eluted with 10 mM reduced glutathione, 50 mM Tris-HCl (pH 8.0). The eluted material was dialysed three times against 10 volumes of 50 mM Tris-HCl (pH 8.0), 150 mM NaCl. […] The concentration of intact substrate (52 kDa) was determined by comparison with Coomassie Brilliant Blue staining of known amounts of bovine serum albumin (GE Healthsciences, Buckinghampshire, UK). […]
Aggrecanase assays were carried out in 50 mM Tris HCl pH 7.5, 150 mM NaCl, 10 mM CaCl2, 0.02% NaN3, 0.05% Brij-35 at 37° C. […] The stained gels were then scanned using a scanning densitometer (Biorad GS-710, Hemel Hempstead, UK) and the band intensity of the product (17 kDa) quantified using the 1D Phoretix quantification software (Nonlinear Dynamics, Newcastle upon Tyne, UK). Background subtraction was done using the rolling ball method, and band intensity expressed as pixel volumes.

Row | Potency for ADAMTS-5 relative to ADAMTS-4 (ADAMTS-5 versus ADAMTS-4) | Ki [nM] | Molecule
1 | about 45 times |  | (-2A)N-TIMP-3: N-TIMP-3 mutant with two alanine residues on the N-terminal side of Cysteine1 of the TIMP-3 sequence (protein) AACTCSPSHPQDAFCNSDIVIRAKVVGKKLVKEGPFGTLVYTIKQMKMYRGFTKMPHVQYIHTEASESLCGLKLEVNKYQYLLTGRVYDGKMYTGLCNFVERWDQLTLSQRKGLNYRYHLGCN
2 |  | 0.4 ± 0.2 | N-TIMP-3: N-terminal inhibitory domain of TIMP-3 (residues 1 to 121), C-terminally His-tagged, wild-type (protein) CTCSPSHPQDAFCNSDIVIRAKVVGKKLVKEGPFGTLVYTIKQMKMYRGFTKMPHVQYIHTEASESLCGLKLEVNKYQYLLTGRVYDGKMYTGLCNFVERWDQLTLSQRKGLNYRYHLGCN
3 |  | 1.9 ± 0.6 | -1A: N-TIMP-3 mutant with the addition of an N-terminal alanine extension (-1A) (protein) ACTCSPSHPQDAFCNSDIVIRAKVVGKKLVKEGPFGTLVYTIKQMKMYRGFTKMPHVQYIHTEASESLCGLKLEVNKYQYLLTGRVYDGKMYTGLCNFVERWDQLTLSQRKGLNYRYHLGCN
